# In IntAct's records for PubMed 21718540:
# B1: TGF-beta receptor type-1 (Mus musculus), Q64729 (parent)
# chain: MEAAAAAPRRPQLLIVLVAAATLLPGAKALQCFCHLCTKDNFTCETDGLCFVSVTETTDKVIHNSMCIAEIDLIPRDRPFVCAPSSKTGAVTTTYCCNQDHCNKIELPTTGPFSEKQSAGLGPVELAAVIAGPVCFVCIALMLMVYICHNRTVIHHRVPNEEDPSLDRPFISEGTTLKDLIYDMTTSGSGSGLPLLVQRTIARTIVLQESIGKGRFGEVWRGKWRGEEVAVKIFSSREERSWFREAEIYQTVMLRHENILGFIAADNKDNGTWTQLWLVSDYHEHGSLFDYLNRYTVTVEGMIKLALSTASGLAHLHMEIVGTQGKPAIAHRDLKSKNILVKKNGTCCIADLGLAVRHDSATDTIDIAPNHRVGTKRYMAPEVLDDSINMKHFESFKRADIYAMGLVFWEIARRCSIGGIHEDYQLPYYDLVPSDPSVEEMRKVVCEQKLRPNIPNRWQSCEALRVMAKIMRECWYANGAARLTALRIKKTLSQLSQQEGIKM
# partner: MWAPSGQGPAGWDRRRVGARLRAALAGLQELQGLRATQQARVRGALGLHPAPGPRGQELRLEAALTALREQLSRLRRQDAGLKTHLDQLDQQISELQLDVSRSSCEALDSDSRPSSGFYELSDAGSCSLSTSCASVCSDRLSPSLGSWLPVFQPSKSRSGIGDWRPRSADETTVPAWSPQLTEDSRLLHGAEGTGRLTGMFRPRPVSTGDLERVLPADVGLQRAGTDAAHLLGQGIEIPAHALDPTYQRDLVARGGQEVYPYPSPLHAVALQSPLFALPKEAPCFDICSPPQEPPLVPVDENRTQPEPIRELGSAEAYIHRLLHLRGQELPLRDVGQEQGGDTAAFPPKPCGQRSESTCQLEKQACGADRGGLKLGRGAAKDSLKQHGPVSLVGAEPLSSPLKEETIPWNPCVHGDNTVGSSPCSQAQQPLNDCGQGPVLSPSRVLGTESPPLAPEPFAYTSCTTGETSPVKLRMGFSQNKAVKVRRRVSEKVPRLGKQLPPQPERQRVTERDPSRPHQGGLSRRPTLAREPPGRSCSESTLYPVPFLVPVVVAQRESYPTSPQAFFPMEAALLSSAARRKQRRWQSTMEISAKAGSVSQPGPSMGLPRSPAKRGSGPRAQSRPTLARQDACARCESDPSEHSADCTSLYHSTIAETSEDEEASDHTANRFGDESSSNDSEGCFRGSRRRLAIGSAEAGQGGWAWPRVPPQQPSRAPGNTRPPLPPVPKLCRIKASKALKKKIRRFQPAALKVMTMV
# Variants of: B1
# Conditions: with dact2_mouse Dact2, Q7TN08
row,Variant,effect of a mutation on the interaction
1,MEAAAAAPRRPQLLIVLVAAATLLPGAKALQCFCHLCTKDNFTCETDGLCFVSVTETTDKVIHNSMCIAEIDLIPRDRPFVCAPSSKTGAVTTTYCCNQDHCNKIELPTTGPFSEKQSAGLGPVELAAVIAGPVCFVCIALMLMVYICHNRTVIHHRVPNEEDPSLDRPFISEGTTLKDLIYDMTTSGSGSGLPLLVQRTIARDIVLQESIGKGRFGEVWRGKWRGEEVAVKIFSSREERSWFREAEIYQTVMLRHENILGFIAADNKDNGTWTQLWLVSDYHEHGSLFDYLNRYTVTVEGMIKLALSTASGLAHLHMEIVGTQGKPAIAHRDLKSKNILVKKNGTCCIADLGLAVRHDSATDTIDIAPNHRVGTKRYMAPEVLDDSINMKHFESFKRADIYAMGLVFWEIARRCSIGGIHEDYQLPYYDLVPSDPSVEEMRKVVCEQKLRPNIPNRWQSCEALRVMAKIMRECWYANGAARLTALRIKKTLSQLSQQEGIKM [T204D],decreasing interaction
